Reference: article PMC535902

Key:
[1] = target: Rhodobacter capsulatus porphobilinogen synthase (Rhodobacter capsulatus) (UniProt P42504); experiment: AUC; sedimentation equilibrium, 4 °C, 10 mM Tris-HCl pH 7.7 with 0.1 mM DTT or 1 mM βME, 12.3 uM in monomer (440 ug/ml), 8,000-14,000 rpm, global fit to a single species model
[2] = target: Rhodobacter capsulatus porphobilinogen synthase (Rhodobacter capsulatus) (UniProt P42504)
[3] = target: Rhodobacter capsulatus porphobilinogen synthase (Rhodobacter capsulatus) (UniProt P42504); experiment: SEC; Superose 6 (10 x 300 mm), 0.5 ml/min, 100 mM BTP pH 8.6, 100 uL of a 200 ug/ml solution; column calibrated with standards

stoichiometry N [1]: 6 | specific activity of the enzyme against protein concentration (0.01 to 40 ug/ml; from ~150 at the lowest to ~450 umol h^-1 mg^-1 at the highest) (μmol h^-1 mg^-1) [2]: 450 | stoichiometry N [3]: 6
Substance: Rhodobacter capsulatus porphobilinogen synthase (from UniProt P42504 1-332) (enzyme)
